The term Kd denotes the equilibrium constant for the complex coming apart. Low readings indicate higher affinity, high ones lower affinity.

Here are results for one molecule from US20050170468A1 (published 2005).

Holding throughout (experiment): radiolabeled ligand binding assay on stably transfected BHK cells
For test [1], the target named is T1, IL-20RA/IL-20RB heterodimeric receptor (on cells) (human, UniProt Q9UHF4 30-553; Q6UXL0 30-311).
T1 construct: Both subunits are on the same cell (COS, BHK or BaF3 transfectants, or HaCaT endogenously); also called IL-20 receptor; ZcytoR7/pDIRS1
T1 sequence 1: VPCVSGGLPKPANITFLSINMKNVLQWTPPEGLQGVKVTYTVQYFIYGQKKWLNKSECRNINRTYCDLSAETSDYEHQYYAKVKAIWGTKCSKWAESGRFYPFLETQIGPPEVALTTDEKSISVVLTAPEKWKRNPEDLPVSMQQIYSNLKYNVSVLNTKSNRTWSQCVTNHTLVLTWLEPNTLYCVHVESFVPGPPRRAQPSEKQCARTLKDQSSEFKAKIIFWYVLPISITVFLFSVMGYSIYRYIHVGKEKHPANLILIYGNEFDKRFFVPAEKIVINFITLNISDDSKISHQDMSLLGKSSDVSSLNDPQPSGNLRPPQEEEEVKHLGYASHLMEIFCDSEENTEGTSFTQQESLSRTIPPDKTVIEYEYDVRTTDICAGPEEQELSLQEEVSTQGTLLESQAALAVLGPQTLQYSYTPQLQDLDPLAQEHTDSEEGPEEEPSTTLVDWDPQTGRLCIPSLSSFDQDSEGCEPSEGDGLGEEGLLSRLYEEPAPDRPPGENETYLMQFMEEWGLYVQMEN
T1 sequence 2: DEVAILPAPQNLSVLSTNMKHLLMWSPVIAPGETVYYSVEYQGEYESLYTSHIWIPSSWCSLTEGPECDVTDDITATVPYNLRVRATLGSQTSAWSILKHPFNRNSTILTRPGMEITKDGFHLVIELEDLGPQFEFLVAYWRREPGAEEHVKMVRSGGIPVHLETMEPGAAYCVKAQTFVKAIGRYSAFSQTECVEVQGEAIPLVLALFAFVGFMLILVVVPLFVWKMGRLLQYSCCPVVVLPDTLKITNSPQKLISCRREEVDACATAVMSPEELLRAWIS
On the procedure: (§1) The specificity and affinity of IL-20 for its receptor was determined using BHK cells stably transfected with IL-20RA, IL-20RB or both receptor subunits. […] Binding of ¹²⁵I-labeled IL-20 was eliminated in the presence of 100-fold excess of unlabeled IL-20 but not with 100-fold excess of the unrelated cytokine, IL-21.

The target of test [2] is T2, IL-20RA (full-length, on cells, without transfected IL-20RB) (human, UniProt Q9UHF4 30-553).
T2 construct: Also used as the target of the anti-IL-20RA antibody on human lung tissue, the positive control 'known with IL-20RA expression'; also called ZcytoR7; BaF3/KZ134/IL-20RA only cells
T2 sequence: T1 sequence 1
On the procedure:
as §1

For test [3], the target named is T3, IL-20RB (full-length, on cells, without transfected IL-20RA) (human, UniProt Q6UXL0 30-311).
T3 construct: also called DIRS1; pDIRS1
T3 sequence: T1 sequence 2
Here is the method: as §1

B1: IL-20 (ligand)
chain: LKTLNLGSCVIATNLQEIRNGFSDIRGSVQAKDGNIDIRILRRTESLQDTKPANRCCLLRHLLRLYLDRVFKNYQTPDHYTLRKISSLANSFLTIKKDLRLCHAHMTCHCGEEAMKKYSQILSHFEKLEPQAAVVKALGELDILLQWMEETE
modifications: biotin label in Example 6; 125I label in Example 10
notes: also called Zcyto10; biotinylated IL-20 protein
B1 gave a Kd in test [1] of roughly 1.5 nM. For the same molecule, the binding result in test [2] and in test [3] was “no binding” throughout.
